This is an account of results in patent US20230220071A1 (Hoffmann-La Roche, published 2023).

The test has as its target T1, human transferrin receptor (BIAcore, construct not stated) (human, UniProt P02786 89-760).
T1 construct: also called huTfR
Nature of the test: SPR, 25 C. Background: SPR reads the build-up and loss of mass on a sensor chip optically.

Positions count from the first letter of the chain named.

T1 sequence (P02786 89-760): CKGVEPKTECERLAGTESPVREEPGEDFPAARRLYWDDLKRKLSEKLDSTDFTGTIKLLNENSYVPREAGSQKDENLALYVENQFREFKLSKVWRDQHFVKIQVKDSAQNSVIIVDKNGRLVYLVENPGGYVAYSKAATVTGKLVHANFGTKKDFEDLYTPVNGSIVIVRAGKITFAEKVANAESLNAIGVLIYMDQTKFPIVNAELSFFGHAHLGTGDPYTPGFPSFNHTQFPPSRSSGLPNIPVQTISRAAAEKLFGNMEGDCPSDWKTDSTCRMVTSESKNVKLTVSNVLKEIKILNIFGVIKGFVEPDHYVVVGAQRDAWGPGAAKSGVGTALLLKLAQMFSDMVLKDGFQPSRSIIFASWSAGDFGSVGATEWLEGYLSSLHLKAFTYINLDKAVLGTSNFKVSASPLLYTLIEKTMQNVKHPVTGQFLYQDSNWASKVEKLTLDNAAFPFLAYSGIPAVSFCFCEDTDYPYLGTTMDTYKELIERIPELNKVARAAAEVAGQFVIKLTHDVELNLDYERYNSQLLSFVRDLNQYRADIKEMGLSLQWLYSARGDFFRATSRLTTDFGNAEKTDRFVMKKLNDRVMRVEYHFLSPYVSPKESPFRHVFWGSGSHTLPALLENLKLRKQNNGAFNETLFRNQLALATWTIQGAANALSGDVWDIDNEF

B1: clone 299 VH 0 (rb) / VL 5 (antibody, V domains shown)
VH: QSMEESGGRLVTPGTPLTLTCTVSGFSLSSYAMSWVRQAPGKGLEWIGYIWSGGSTDYASWAKGRFTISKTSTTVDLKITSPTTEDTATYFCARRYGTSYPDYGDANGFDPWGPGTLVTVSS
VL: DIQMTQSPSSLSASVGDRVTITCRASQSISSYLSWYQQKPGKAPKLLIYRASTLASGVPSRFSGSGSGTDFTLTISSLQPEDFATYYCQQSYSSSNVDNTFGGGTKVEIK
Broadly, the koff is the first-order rate constant of dissociation. A higher koff goes with fast dissociation. B1: the koff amounted to 0.00194 s⁻¹.

B2: clone 299 VH 0 (rb) / VL 14 (antibody, V domains shown)
VH: B1 VH
VL: DIVMTQSPDSLAVSLGERATINCKSSQSISSYLSWYQQKPGQRPKLLIYRASTLASGVPDRFSGSGSGTDFTLTISSLQAEDVAVYYCQQSYSSSNVDNTFGGGTKVEIK
Turning to B2, the koff was 0.00178 s⁻¹.

B3: clone 299 VH 22 / VL 9-NYA (antibody, V domains shown)
VH: QSMQESGPGLVKPSQTLSLTCTVSGFSLSSYAMSWVRQHPGKGLEWIGYIWSGGSTDYASWAKSRVTISVDTSKNQVSLKLSSVTAADTAVYYCARRYGTSYPDYGDANGFDPWGQGTLVTVSS
VL: B1 VL with D1A, M4L, S34A, S91N, S93A
For the molecule B3, the koff was determined as 0.00126 s⁻¹.

B4: clone 299 VH 0 (rb) / VL 8 (antibody, V domains shown)
VH: B1 VH
VL: B1 VL with D1A, I2Y, M4L
In the case of B4, the koff came to 0.00139 s⁻¹.

B5: clone 299 VH 0 (rb) / VL 7 (antibody, V domains shown)
VH: B1 VH
VL: B1 VL with D1A, M4L, S34A
As for B5, the off-rate (koff) came out at 0.00463 s⁻¹.

B6: clone 299 VH 17 / VL 9-NYA (antibody, V domains shown)
VH: B3 VH with S2Q, M3L, Q15E, H39P, A59N, S60P, W61S, A62L, V70K, Q116P
VL: B1 VL with D1A, M4L, S34A, S91N, S93A
In turn, B6 came in with a dissociation rate constant (koff) of 0.000934 s⁻¹.

B7: clone 299 VH 15 / VL 9-NYA (antibody, V domains shown)
VH: B3 VH with S2Q, M3L, Q15E, H39P, A59N, S60P, W61S, A62L
VL: B1 VL with D1A, M4L, S34A, S91N, S93A
As to B7, the koff was determined as 0.00142 s⁻¹.

B8: clone 299 VH 16 / VL 9-NYA (antibody, V domains shown)
VH: B3 VH with S2Q, M3L, Q15E, H39P, A59N, S60P, W61S, A62L, Q116P
VL: B1 VL with D1A, M4L, S34A, S91N, S93A
B8: the koff amounted to 0.00136 s⁻¹.

B9: clone 299 VH 0 (rb) / VL 6 (antibody, V domains shown)
VH: B1 VH
VL: B1 VL with D1A, M4L
As to B9, the koff worked out at 0.0019 s⁻¹.

B10: clone 299 VH 0 (rb) / VL 10 (antibody, V domains shown)
VH: B1 VH
VL: B1 VL with G66R
Molecule B10 yielded a koff of 0.00188 s⁻¹.

B11: clone 299 VH 20 / VL 9-NYA (antibody, V domains shown)
VH: B3 VH with V36I, S60P, W61S, A62L
VL: B1 VL with D1A, M4L, S34A, S91N, S93A
As to B11, the koff is 0.00189 s⁻¹.

B12: clone 299 VH 11 / VL 9-NYA (antibody, V domains shown)
VH: QQLLESGGGLVQPGGSLRLSCAASGFSLSSYAMSWVRQAPGKGLEWVGYIWSGGSTDYADSVKGRFTISRDNSKNTLYLQMNSLRAEDTAVYYCARRYGTSYPDYGDANGFDPWGQGTLVTVSS
VL: B1 VL with D1A, M4L, S34A, S91N, S93A
For the molecule B12, the off-rate constant (koff) is 0.00242 s⁻¹.

B13: clone 299 VH 0 (rb) / VL 17 (antibody, V domains shown)
VH: B1 VH
VL: B1 VL with D1A, M4L, S34A, S91T
Regarding B13, the off-rate constant (koff) was 0.00149 s⁻¹.

B14: clone 299 VH 19 / VL 9-NYA (antibody, V domains shown)
VH: B3 VH with V36I, S60P, W61S, A62L, V77F
VL: B1 VL with D1A, M4L, S34A, S91N, S93A
On to B14, for which the koff came to 0.00617 s⁻¹.

B15: clone 299 VH 0 (rb) / VL 12 (antibody, V domains shown)
VH: B1 VH
VL: B1 VL with S34A, G66R, S91H
Regarding B15, the off-rate (koff) came to 0.00541 s⁻¹.

B16: clone 299 VH 18 / VL 9-NYA (antibody, V domains shown)
VH: QVQLQESGPGLVKPSQTLSLTCTVSGFSLSSYAMSWIRQHPGKGLEWIGYIWSGGSTDYAPSLKSRVTISVDTSKNQFSLKLSSVTAADTAVYYCARRYGTSYPDYGDANGFDPWGQGTLVTVSS
VL: B1 VL with D1A, M4L, S34A, S91N, S93A
With B16, the koff came out at 0.00221 s⁻¹.

B17: clone 299 VH 12 / VL 9-NYA (antibody, V domains shown)
VH: B16 VH with Q16E, H40P, A60N
VL: B1 VL with D1A, M4L, S34A, S91N, S93A
Turning to B17, the off-rate (koff) amounted to 0.00219 s⁻¹.

B18: clone 299 VH 9 / VL 9-NYA (antibody, V domains shown)
VH: B12 VH with S27T, L28F, R96K
VL: B1 VL with D1A, M4L, S34A, S91N, S93A
The molecule B18 returned a koff of 0.00252 s⁻¹.

B19: clone 299 VH 13 / VL 9-NYA (antibody, V domains shown)
VH: B16 VH with Q16E, H40P, A60N, F78V
VL: B1 VL with D1A, M4L, S34A, S91N, S93A
With B19, the off-rate constant (koff) worked out at 0.00139 s⁻¹.

B20: clone 299 VH 21 / VL 9-NYA (antibody, V domains shown)
VH: B3 VH with V36I
VL: B1 VL with D1A, M4L, S34A, S91N, S93A
In the case of B20, the koff came out at 0.00113 s⁻¹.

B21: clone 299 VH 0 (rb) / VL 15 (antibody, V domains shown)
VH: B1 VH
VL: B2 VL with S34I, R43P, S91A
As for B21, the koff was 0.00663 s⁻¹.

B22: clone 299 VH 20 / VL 0 (rb) (antibody, V domains shown)
VH: B3 VH with V36I, S60P, W61S, A62L
VL: AYDMTQTPASVEVAVGGTVTIKCQASQSISSYLSWYQQKPGQRPKLLIYRASTLASGVSSRFKGSGSGTQFTLTISGVECADAATYYCQQCYSSSNVDNTFGGGTEVVVK
B22 yielded a koff of 0.00111 s⁻¹.

B23: clone 299 VH 11 / VL 0 (rb) (antibody, V domains shown)
VH: B12 VH
VL: B22 VL
The molecule B23 gave a koff of 0.000905 s⁻¹.

B24: clone 299 VH 23-DANG / VL 0 (rb) (antibody, V domains shown)
VH: QSMQESGPGLVKPSQTLSLTCTVSGFSLSSYAMSWIRQHPGKGLEWIGYIWSGGSTDYASWAKSRVTISKTSTTVSLKLSSVTAADTAVYYCARRYGTSYPDYGDANGFDPWGQGTLVTVSS
VL: B22 VL
The molecule B24 came in with an off-rate (koff) of 0.000338 s⁻¹.

B25: clone 299 VH 12 / VL 0 (rb) (antibody, V domains shown)
VH: B16 VH with Q16E, H40P, A60N
VL: B22 VL
For B25, the koff came out at 0.000921 s⁻¹.

B26: clone 299 VH 7 / VL 0 (rb) (antibody, V domains shown)
VH: B12 VH with L4V, S6T, V11I, V47I, D60S, S61W, V62A
VL: B22 VL
The molecule B26 registered a koff of 0.000515 s⁻¹.

B27: clone 299 VH 9 / VL 0 (rb) (antibody, V domains shown)
VH: B12 VH with S27T, L28F, R96K
VL: B22 VL
Molecule B27 showed an off-rate (koff) of 0.000901 s⁻¹.

B28: clone 299 VH 15 / VL 0 (rb) (antibody, V domains shown)
VH: B3 VH with S2Q, M3L, Q15E, H39P, A59N, S60P, W61S, A62L
VL: B22 VL
The molecule B28 showed a dissociation rate constant (koff) of 0.000763 s⁻¹.

B29: clone 299 VH 18 / VL 0 (rb) (antibody, V domains shown)
VH: B16 VH
VL: B22 VL
The molecule B29 showed a koff of 0.00109 s⁻¹.

B30: clone 299 VH 16 / VL 0 (rb) (antibody, V domains shown)
VH: B3 VH with S2Q, M3L, Q15E, H39P, A59N, S60P, W61S, A62L, Q116P
VL: B22 VL
Take B30: the koff amounted to 0.000653 s⁻¹.

B31: clone 299 VH 22 / VL 0 (rb) (antibody, V domains shown)
VH: B3 VH
VL: B22 VL
In the case of B31, the off-rate constant (koff) is 0.000506 s⁻¹.

B32: clone 299 VH 5 / VL 0 (rb) (antibody, V domains shown)
VH: B12 VH with Q2S, L3M, L4E, S6T, V11I, Q116P
VL: B22 VL
Molecule B32 displayed an off-rate (koff) of 0.000772 s⁻¹.

B33: clone 299 VH 1 / VL 0 (rb) (antibody, V domains shown)
VH: B12 VH with Q1V, L4V, S6T, V11I
VL: B22 VL
As for B33, the koff was 0.000908 s⁻¹.

B34: clone 299 VH 19 / VL 0 (rb) (antibody, V domains shown)
VH: B3 VH with V36I, S60P, W61S, A62L, V77F
VL: B22 VL
In turn, B34 displayed a koff of 0.001 s⁻¹.

B35: clone 299 VH 17 / VL 0 (rb) (antibody, V domains shown)
VH: B3 VH with S2Q, M3L, Q15E, H39P, A59N, S60P, W61S, A62L, V70K, Q116P
VL: B22 VL
Consider B35, for which the off-rate constant (koff) came out at 0.000413 s⁻¹.

B36: clone 299 VH 21 / VL 0 (rb) (antibody, V domains shown)
VH: B3 VH with V36I
VL: B22 VL
The molecule B36 showed a koff of 0.000565 s⁻¹.
